{"source": "paper PMC6843132", "about": "“The Plant NF-Y DNA Matrix In Vitro and In Vivo”", "key": {"[1]": {"target": "AtNF-YA2;AtNF-YB2;AtNF-YC3 (Arabidopsis thaliana;Arabidopsis …, UniProt Q9M9X4;Q9FGJ3;Q9ZVL3 134-207;24-116;55-148, ||)", "sequence (Q9M9X4 134-207, chain 1 of 3)": "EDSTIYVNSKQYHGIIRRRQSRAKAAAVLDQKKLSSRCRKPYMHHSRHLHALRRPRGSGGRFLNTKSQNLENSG", "sequence (Q9FGJ3 24-116, chain 2 of 3)": "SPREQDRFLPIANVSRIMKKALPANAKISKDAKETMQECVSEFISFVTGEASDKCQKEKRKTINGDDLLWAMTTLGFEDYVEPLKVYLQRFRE", "sequence (Q9ZVL3 55-148, chain 3 of 3)": "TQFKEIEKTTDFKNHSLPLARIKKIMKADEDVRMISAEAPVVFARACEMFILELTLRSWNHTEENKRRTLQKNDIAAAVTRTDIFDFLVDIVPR", "assay": "EMSA; efficiency similar to NF-YA6 trimer; 12 mM Tris-HCl pH 8.0, 50 mM NaCl, 50 mM KCl, 5 mM MgCl2, 0.5 mM EDTA, 12% glycerol, 0.2 mg/mL BSA, 2.5 mM DTT, 100 ng poly(dA:dT), 20 nM Cy5 probe, 30 C 30 min; 6% PAGE in 0.25X TBE", "details": "protein: recombinant;recombinant;recombinant; tags: 6His;6His removed by thrombin;; copies: 1;1;1; label: Cy5 5'"}, "[2]": {"target": "T1, AtNF-YA6;AtNF-YB2;AtNF-YC3 (Arabidopsis thaliana;Arabidopsis …, UniProt Q9LVJ7;Q9FGJ3;Q9ZVL3 170-237;24-116;55-148, ||)", "T1 sequence (Q9LVJ7 170-237, chain 1 of 3)": "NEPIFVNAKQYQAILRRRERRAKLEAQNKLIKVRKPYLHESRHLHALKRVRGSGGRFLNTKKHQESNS", "T1 sequence (Q9FGJ3 24-116, chain 2 of 3)": "as the sequence (Q9FGJ3 24-116, chain 2 of 3) above", "T1 sequence (Q9ZVL3 55-148, chain 3 of 3)": "as the sequence (Q9ZVL3 55-148, chain 3 of 3) above", "assay": "EMSA; 12 mM Tris-HCl pH 8.0, 50 mM NaCl, 50 mM KCl, 5 mM MgCl2, 0.5 mM EDTA, 12% glycerol, 0.2 mg/mL BSA, 2.5 mM DTT, 100 ng poly(dA:dT), 20 nM Cy5 probe, 30 C 30 min; 6% PAGE in 0.25X TBE", "details": "protein: recombinant;recombinant;recombinant; tags: 6His;6His removed by thrombin;; copies: 1;1;1; label: Cy5 5'"}, "[3]": {"target": "T1, AtNF-YA6;AtNF-YB2;AtNF-YC3", "assay": "competition EMSA; higher affinity; 12 mM Tris-HCl pH 8.0, 50 mM NaCl, 50 mM KCl, 5 mM MgCl2, 0.5 mM EDTA, 12% glycerol, 0.2 mg/mL BSA, 2.5 mM DTT, 100 ng poly(dA:dT), 20 nM Cy5 probe, 30 C 30 min; 6% PAGE in 0.25X TBE", "details": "protein: recombinant;recombinant;recombinant; tags: 6His;6His removed by thrombin;; copies: 1;1;1"}, "[4]": {"target": "T1, AtNF-YA6;AtNF-YB2;AtNF-YC3", "assay": "competition EMSA; similar rates, WT A least preferred; 12 mM Tris-HCl pH 8.0, 50 mM NaCl, 50 mM KCl, 5 mM MgCl2, 0.5 mM EDTA, 12% glycerol, 0.2 mg/mL BSA, 2.5 mM DTT, 100 ng poly(dA:dT), 20 nM Cy5 probe, 30 C 30 min; 6% PAGE in 0.25X TBE", "details": "protein: recombinant;recombinant;recombinant; tags: 6His;6His removed by thrombin;; copies: 1;1;1"}, "[5]": {"target": "T1, AtNF-YA6;AtNF-YB2;AtNF-YC3", "assay": "competition EMSA; equal to WT; 12 mM Tris-HCl pH 8.0, 50 mM NaCl, 50 mM KCl, 5 mM MgCl2, 0.5 mM EDTA, 12% glycerol, 0.2 mg/mL BSA, 2.5 mM DTT, 100 ng poly(dA:dT), 20 nM Cy5 probe, 30 C 30 min; 6% PAGE in 0.25X TBE", "details": "protein: recombinant;recombinant;recombinant; tags: 6His;6His removed by thrombin;; copies: 1;1;1"}, "[6]": {"target": "T1, AtNF-YA6;AtNF-YB2;AtNF-YC3", "assay": "competition EMSA; better than WT; 12 mM Tris-HCl pH 8.0, 50 mM NaCl, 50 mM KCl, 5 mM MgCl2, 0.5 mM EDTA, 12% glycerol, 0.2 mg/mL BSA, 2.5 mM DTT, 100 ng poly(dA:dT), 20 nM Cy5 probe, 30 C 30 min; 6% PAGE in 0.25X TBE", "details": "protein: recombinant;recombinant;recombinant; tags: 6His;6His removed by thrombin;; copies: 1;1;1"}, "[7]": {"target": "T1, AtNF-YA6;AtNF-YB2;AtNF-YC3", "assay": "competition EMSA; preferred over WT; 12 mM Tris-HCl pH 8.0, 50 mM NaCl, 50 mM KCl, 5 mM MgCl2, 0.5 mM EDTA, 12% glycerol, 0.2 mg/mL BSA, 2.5 mM DTT, 100 ng poly(dA:dT), 20 nM Cy5 probe, 30 C 30 min; 6% PAGE in 0.25X TBE", "details": "protein: recombinant;recombinant;recombinant; tags: 6His;6His removed by thrombin;; copies: 1;1;1"}, "[8]": {"target": "T1, AtNF-YA6;AtNF-YB2;AtNF-YC3", "assay": "competition EMSA; 12 mM Tris-HCl pH 8.0, 50 mM NaCl, 50 mM KCl, 5 mM MgCl2, 0.5 mM EDTA, 12% glycerol, 0.2 mg/mL BSA, 2.5 mM DTT, 100 ng poly(dA:dT), 20 nM Cy5 probe, 30 C 30 min; 6% PAGE in 0.25X TBE", "details": "protein: recombinant;recombinant;recombinant; tags: 6His;6His removed by thrombin;; copies: 1;1;1"}, "[9]": {"target": "T1, AtNF-YA6;AtNF-YB2;AtNF-YC3", "assay": "competition EMSA; highest affinity at -3; 12 mM Tris-HCl pH 8.0, 50 mM NaCl, 50 mM KCl, 5 mM MgCl2, 0.5 mM EDTA, 12% glycerol, 0.2 mg/mL BSA, 2.5 mM DTT, 100 ng poly(dA:dT), 20 nM Cy5 probe, 30 C 30 min; 6% PAGE in 0.25X TBE", "details": "protein: recombinant;recombinant;recombinant; tags: 6His;6His removed by thrombin;; copies: 1;1;1"}, "[10]": {"target": "T1, AtNF-YA6;AtNF-YB2;AtNF-YC3", "assay": "competition EMSA; purines preferred at +2; 12 mM Tris-HCl pH 8.0, 50 mM NaCl, 50 mM KCl, 5 mM MgCl2, 0.5 mM EDTA, 12% glycerol, 0.2 mg/mL BSA, 2.5 mM DTT, 100 ng poly(dA:dT), 20 nM Cy5 probe, 30 C 30 min; 6% PAGE in 0.25X TBE", "details": "protein: recombinant;recombinant;recombinant; tags: 6His;6His removed by thrombin;; copies: 1;1;1"}}}
{"binder": "CAB2 (-65) CCAAT 31 bp probe (dsDNA) DNA 1: CTTAAAATCCAATGAATGAACAGATAAAGAT DNA 2: ATCTTTATCTGTTCATTCATTGGATTTTAAG", "values": [{"measurement": "binding result", "setting": "[1]", "result": "binds"}, {"measurement": "binding result", "setting": "[2]", "result": "binds"}]}
{"binder": "CAB2 T16A (dsDNA) DNA 1: CTTAAAATCCAATGAAAGAACAGATAAAGAT DNA 2: ATCTTTATCTGTTCTTTCATTGGATTTTAAG", "values": [{"measurement": "binding result", "setting": "[3]", "result": "binds"}]}
{"binder": "CAB2 A15C (dsDNA) DNA 1: CTTAAAATCCAATGACTGAACAGATAAAGAT DNA 2: ATCTTTATCTGTTCAGTCATTGGATTTTAAG", "values": [{"measurement": "binding result", "setting": "[4]", "result": "binds"}]}
{"binder": "CAB2 A6T (dsDNA) DNA 1: CTTAAATTCCAATGAATGAACAGATAAAGAT DNA 2: ATCTTTATCTGTTCATTCATTGGAATTTAAG", "values": [{"measurement": "binding result", "setting": "[5]", "result": "binds"}]}
{"binder": "CAB2 A6G (dsDNA) DNA 1: CTTAAAGTCCAATGAATGAACAGATAAAGAT DNA 2: ATCTTTATCTGTTCATTCATTGGACTTTAAG", "values": [{"measurement": "binding result", "setting": "[6]", "result": "binds"}]}
{"binder": "CAB2 G13C (dsDNA) DNA 1: CTTAAAATCCAATCAATGAACAGATAAAGAT DNA 2: ATCTTTATCTGTTCATTGATTGGATTTTAAG", "values": [{"measurement": "binding result", "setting": "[7]", "result": "binds"}]}
{"binder": "CAB2 WT competitor 31 bp (dsDNA) DNA 1: CTTAAAATCCAATGAATGAACAGATAAAGAT DNA 2: ATCTTTATCTGTTCATTCATTGGATTTTAAG", "values": [{"measurement": "binding result", "setting": "[8]", "result": "binds"}]}
{"binder": "CAB2 A15T (dsDNA) DNA 1: CTTAAAATCCAATGATTGAACAGATAAAGAT DNA 2: ATCTTTATCTGTTCAATCATTGGATTTTAAG", "values": [{"measurement": "binding result", "setting": "[4]", "result": "binds"}]}
{"binder": "CAB2 T7G (dsDNA) DNA 1: CTTAAAAGCCAATGAATGAACAGATAAAGAT DNA 2: ATCTTTATCTGTTCATTCATTGGCTTTTAAG", "values": [{"measurement": "binding result", "setting": "[7]", "result": "binds"}]}
{"binder": "CAB2 A6C (dsDNA) DNA 1: CTTAAACTCCAATGAATGAACAGATAAAGAT DNA 2: ATCTTTATCTGTTCATTCATTGGAGTTTAAG", "values": [{"measurement": "binding result", "setting": "[6]", "result": "binds"}]}
{"binder": "CAB2 T7A (dsDNA) DNA 1: CTTAAAAACCAATGAATGAACAGATAAAGAT DNA 2: ATCTTTATCTGTTCATTCATTGGTTTTTAAG", "values": [{"measurement": "binding result", "setting": "[7]", "result": "binds"}]}
{"binder": "CAB2 A5T (dsDNA) DNA 1: CTTAATATCCAATGAATGAACAGATAAAGAT DNA 2: ATCTTTATCTGTTCATTCATTGGATATTAAG", "values": [{"measurement": "binding result", "setting": "[9]", "result": "binds"}]}
{"binder": "CAB2 A15G (dsDNA) DNA 1: CTTAAAATCCAATGAGTGAACAGATAAAGAT DNA 2: ATCTTTATCTGTTCACTCATTGGATTTTAAG", "values": [{"measurement": "binding result", "setting": "[4]", "result": "binds"}]}
{"binder": "CAB2 A14G (dsDNA) DNA 1: CTTAAAATCCAATGGATGAACAGATAAAGAT DNA 2: ATCTTTATCTGTTCATCCATTGGATTTTAAG", "values": [{"measurement": "binding result", "setting": "[10]", "result": "binds"}]}
